Measurements from publication doi:10.1101/2022.12.08.519103 (bioRxiv, 2022).
Blank lines part the entries; values can stand above or below the binder they belong to. Square brackets hold non-standard residues; d marks the D form. Ends that are not written are not given here. pS = N[C@@H](COP(=O)(O)O)C(=O)O

Key:
Test in all cases: Holdup Multiplex
[1] = target: T1, AviTag-His6-MBP-TEVsite-14-3-3γ (human, UniProt P61981 1-247)
T1 sequence (looked up): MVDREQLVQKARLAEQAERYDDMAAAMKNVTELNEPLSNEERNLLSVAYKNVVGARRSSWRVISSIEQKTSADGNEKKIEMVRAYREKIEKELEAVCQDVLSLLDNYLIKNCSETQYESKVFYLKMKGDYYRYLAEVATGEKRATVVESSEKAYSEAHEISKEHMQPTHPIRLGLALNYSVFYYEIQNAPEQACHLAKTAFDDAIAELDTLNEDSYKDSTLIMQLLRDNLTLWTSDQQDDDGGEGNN

[2] = target: T2, AviTag-His6-MBP-TEVsite-14-3-3ε (human, UniProt P62258 1-255)
T2 sequence (looked up): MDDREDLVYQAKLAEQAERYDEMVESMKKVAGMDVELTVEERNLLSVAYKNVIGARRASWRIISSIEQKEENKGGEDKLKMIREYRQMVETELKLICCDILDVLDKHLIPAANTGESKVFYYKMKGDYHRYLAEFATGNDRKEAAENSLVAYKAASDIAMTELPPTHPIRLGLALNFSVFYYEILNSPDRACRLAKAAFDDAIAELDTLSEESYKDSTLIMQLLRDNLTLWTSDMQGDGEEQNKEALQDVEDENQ

[3] = target: T3, AviTag-His6-MBP-TEVsite-14-3-3σ (human, UniProt P31947 1-248)
T3 sequence (looked up): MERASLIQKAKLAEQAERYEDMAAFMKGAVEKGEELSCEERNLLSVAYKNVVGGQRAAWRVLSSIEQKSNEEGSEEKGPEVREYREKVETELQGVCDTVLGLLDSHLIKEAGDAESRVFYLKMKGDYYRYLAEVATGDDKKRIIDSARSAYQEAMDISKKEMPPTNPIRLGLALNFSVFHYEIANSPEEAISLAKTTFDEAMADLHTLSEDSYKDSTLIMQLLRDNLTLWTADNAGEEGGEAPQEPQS

Kd [1]: 0.7 µM
Binder: QRISQ[pS]APVK (peptide, UniProt P46937 271-280, looked up, also: phosphoserine at 276 (S4 or S6)) [YAP1 pSer276 phosphopeptide]

Kd [2]: ~900 µM
Binder: GARPV[pS]VAGS (peptide, UniProt Q9Y4H2 379-388, looked up, also: phosphoserine at 384 (S6 or S10)) [IRS2 pSer384 phosphopeptide]

Kd ratio between γ and σ [3]: 60 fold
Binder: LRRPH[pS]VIGG (peptide, UniProt Q00537 70-79, looked up) [phosphopeptide centered on pSer75 from CDK17]
